1 protein from ChEMBL document CHEMBL1122575, “Dependence of beta-lactamase stability on substructures within beta-lactam antibiotics” (J Med Chem, 1984) can be followed below.

Substrate in data set [1]: CC1(C)SC2[C@H](NC(=O)c3ccccc3)C(=O)N2C1C(=O)O
Nature of the data set: (§1) Stability against beta-lactamase of Staphylococcus aureus.

Substrate in data set [2]: CC1(C)S[C@@H]2[C@H](NC(=O)Cc3ccccc3)C(=O)N2[C@H]1C(=O)O
The data set is described as §1.

Substrate in data set [3]: COc1cccc(OC)c1C(=O)N[C@@H]1C(=O)N2C1SC(C)(C)C2C(=O)O
The description is as §1.

B1: Beta-lactamase (Staphylococcus aureus), P00807 (protein)
chain: MKKLIFLIVIALVLSACNSNSSHAKELNDLEKKYNAHIGVYALDTKSGKEVKFNSDKRFAYASTSKAINSAILLEQVPYNKLNKKVHINKDDIVAYSPILEKYVGKDITLKALIEASMTYSDNTANNKIIKEIGGIKKVKQRLKELGDKVTNPVRYEIELNYYSPKSKKDTSTPAAFGKTLNKLIANGKLSKENKKFLLDLMLNNKSGDTLIKDGVPKDYKVADKSGQAITYASRNDVAFVYPKGQSEPIVLVIFTNKDNKSDKPNDKLISETAKSVMKEF
The Km is the concentration of substrate that gives half-maximal velocity. In the case of B1, the Km in data set [1] was 33 µM; in data set [2] it was 12 µM; in data set [3], 5000 µM.
